Reference: patent US6344321, “Nucleic acid ligands which bind to hepatocyte growth factor/scatter factor (HGF/SF) or its receptor c-met” (Gilead Sciences, Inc.)
Residue numbers refer to the chain shown, from its start.

Biological target: HGF (hepatocyte growth factor/scatter factor) (UniProt P14210;P14210 P14210:32-494,P14210:495-728)
Test: filter; HBSMC, 37C
Conditions: tags: R&D Systems
Method: In binding reactions, RNA concentrations were kept as low as possible—between 1 and 20 pM—to ensure equilibrium in conditions of protein excess. Oligonucleotides were incubated for 15 minutes at 37° C. with varying amounts of the protein in 43 µl of the binding buffer. Thirty-two microliters of each binding mixture placed on pre-wet 0.45 µm nitrocellulose filters under suction. Each well was immediately washed with 0.5 ml binding buffer. The amount of radioactivity retained on the filters was quantitated by imaging. The radioactivity that bound to filters in the absence of protein was used for background correction. The percentage of input oligonucleotide retained on each filter spot was plotted against the corresponding log protein concentration. The nonlinear least square method was used to obtain the dissociation constant (K_d; reference Jellinek, Lynott et al. 1993, Proc. Natl. Acad. Sci. USA. 90:11227–31).

Sequence of HGF (hepatocyte growth factor/scatter factor) (P14210 32-494, chain 1 of 2): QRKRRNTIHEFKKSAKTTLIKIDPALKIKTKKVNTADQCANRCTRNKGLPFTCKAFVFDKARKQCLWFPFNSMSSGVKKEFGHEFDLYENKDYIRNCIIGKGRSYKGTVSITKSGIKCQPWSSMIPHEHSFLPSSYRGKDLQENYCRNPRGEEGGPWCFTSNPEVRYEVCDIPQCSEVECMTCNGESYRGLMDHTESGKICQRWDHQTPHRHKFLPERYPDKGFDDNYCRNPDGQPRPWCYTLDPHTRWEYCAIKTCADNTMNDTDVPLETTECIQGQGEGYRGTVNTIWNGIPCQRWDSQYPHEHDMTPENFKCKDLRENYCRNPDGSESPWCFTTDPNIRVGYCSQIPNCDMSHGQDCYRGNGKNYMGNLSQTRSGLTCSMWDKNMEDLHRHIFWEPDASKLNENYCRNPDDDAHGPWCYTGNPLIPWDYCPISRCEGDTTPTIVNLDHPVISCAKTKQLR
Sequence of HGF (hepatocyte growth factor/scatter factor) (P14210 495-728, chain 2 of 2): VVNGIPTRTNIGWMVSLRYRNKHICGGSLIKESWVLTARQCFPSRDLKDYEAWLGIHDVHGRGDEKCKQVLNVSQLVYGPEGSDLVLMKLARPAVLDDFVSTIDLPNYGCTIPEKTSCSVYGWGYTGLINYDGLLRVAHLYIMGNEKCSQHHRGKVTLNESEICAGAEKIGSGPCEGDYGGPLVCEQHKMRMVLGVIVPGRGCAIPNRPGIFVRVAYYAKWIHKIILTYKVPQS

B1: 8-122 (ssRNA)
RNA: GGGAGGACGAUGCGGCGGUGUGAACCUGUUUAUGUCCGCGUACCCCAGACGACUCGCCCGA
modifications: 2'-F pyrimidines
  Kd: 0.097 nM

B2: 8-125 (ssRNA)
RNA: GGGAGGACGAUGCGGUGUGAACCUGUUUAUGUCAUCUUUUGUCGUCAGACGACUCGCCCGA
modifications: 2'-F pyrimidines
  Kd: 0.075 nM

B3: 11-9 (ssRNA)
RNA: GGGAGGACGAUGCGGCGUGAGCCUGUUUAUGACCUCGUCCAUGGCCAGACGACUCGCCCGA
modifications: 2'-F pyrimidines
  Kd: 0.074 nM

B4: 11-59 (ssRNA)
RNA: GGGAGGACGAUGCGGCGUGAGCCUGUAUAUGUCAUUGUUCUCCGGCAGACGACUCGCCCGA
modifications: 2'-F pyrimidines
  Kd: 0.11 nM

B5: 11-103 (ssRNA)
RNA: GGGAGGACGAUGCGGUGAUUACCUAUUAUGUCUCGCCCUCUCCAGACGACUCGCCCGA
modifications: 2'-F pyrimidines
  Kd: 0.2 nM

B6: 11-110 (ssRNA)
RNA: GGGAGGACGAUGCGGUGAUUACCUAUUUAUGUCAUGCUCCUCCCCCAGACGACUCGCCCGA
modifications: 2'-F pyrimidines
  Kd: 0.086 nM

B7: 11-65 (ssRNA)
RNA: GGGAGGACGAUGCGGUGAUAACCUGUUUAUGCCAUCGUGCUGGGCCAGACGACUCGCCCGA
modifications: 2'-F pyrimidines
  Kd: 0.11 nM

B8: 11-158 (ssRNA)
RNA: B3 RNA with U18A, G19U, G25A, A41C, U42C, G44U, C45G
modifications: 2'-F pyrimidines
  Kd: 0.17 nM

B9: 11-217 (ssRNA)
RNA: B3 RNA with G25U, U26C, U27C, U28A, C34G, A41U
modifications: 2'-F pyrimidines
  Kd: 0.071 nM

B10: 8-104 (ssRNA)
RNA: GGGAGGACGAUGCGGGCGACUCAAUCUGAAUCGUCUUGUCCCGUGCAGACGACUCGCCCGA
modifications: 2'-F pyrimidines
  Kd: 0.05 nM

B11: 11-76 (ssRNA)
RNA: GGGAGGACGAUGCGGUCAGCGGCGCGAGCCUGUUUAUGUCUGCUGCAGACGACUCGCCCGA
modifications: 2'-F pyrimidines
  Kd: 0.076 nM

B12: 8-155 (ssRNA)
RNA: GGGAGGACGAUGCGGUGUGAACCUAUUUAUGCCAUCUCGAGUGCCCAGACGACUCGCCCGA
modifications: 2'-F pyrimidines
  Kd: 0.093 nM

B13: 11-8 (ssRNA)
RNA: GGGAGGACGAUGCGGUCAGUAUGACUUUUAUAGCACGUUCGCCCCAGACGACUCGCCCGA
modifications: 2'-F pyrimidines
  Kd: 0.15 nM

B14: 11-153 (ssRNA)
RNA: GGGAGGACGAUGCGGACAGGUAGUCUUCUAUAGCACUUCCUCCCCCAGACGACUCGCCCGA
modifications: 2'-F pyrimidines
  Kd: 0.19 nM

B15: 11-157 (ssRNA)
RNA: B13 RNA with U20A, U29C, U38C, C40U, G41U
modifications: 2'-F pyrimidines
  Kd: 0.26 nM

B16: 11-222 (ssRNA)
RNA: GGGAGGACGAUGCGGACAUAAGUCUUCUAUAGCUCGUCCUUUGUGCAGACGACUCGCCCGA
modifications: 2'-F pyrimidines
  Kd: 0.077 nM

B17: 11-223 (ssRNA)
RNA: GGGAGGACGAUGCGGUCAGUAUGGCUUCUAUAGCUCGUUCCUCGGCAGACGACUCGCCCGA
modifications: 2'-F pyrimidines
  Kd: 0.12 nM

B18: 8-126 (ssRNA)
RNA: GGGAGGACGAUGCGGGUGACUCAAAAUGGUGAUCCUCGUUUCCGCCAGACGACUCGCCCGA
modifications: 2'-F pyrimidines
  Kd: 0.099 nM

B19: 8-101 (ssRNA)
RNA: GGGAGGACGAUGCGGGUGACUCAAAAUGGUGAUCCUCGAUUUCCGCCAGACGACUCGCCCGA
modifications: 2'-F pyrimidines
  Kd: 0.095 nM

B20: 8-103 (ssRNA)
RNA: GGGAGGACGAUGCGGGCCGAAAAUUCGUCGACAUCUCCCUGUCUGCAGACGACUCGCCCGA
modifications: 2'-F pyrimidines
  Kd: 0.12 nM

B21: 8-118 (ssRNA)
RNA: GGGAGGACGAUGCGGGGCGACUUUCCUCCAAUUCUCACCUCUGCACAGACGACUCGCCCGA
modifications: 2'-F pyrimidines
  Kd: 0.16 nM

B22: 8-119 (ssRNA)
RNA: GGGAGGACGAUGCGGGCCAUUCGAUCGAUUCUCCGCCGGAUCGUGCAGACGACUCGCCCGA
modifications: 2'-F pyrimidines
  Kd: 0.11 nM

B23: 8-165 (ssRNA)
RNA: GGGAGGACGAUGCGGCGAGAGCCUAUUUAUGUCAUCAUGCCUGUGCAGACGACUCGCCCGA
modifications: 2'-F pyrimidines
  Kd: 0.1 nM

B24: 8-3 (ssRNA)
RNA: GGGAGGACGAUGCGGAUCCCGCGACCAGGGCGUUUCUUCCUCGUCCCAGACGACUCGCCCGA
modifications: 2'-F pyrimidines
  Kd: 0.13 nM

B25: 8-112 (ssRNA)
RNA: GGGAGGACGAUGCGGUCCCGAAUUUAAGUGCGUUUCCUCCGCGUCCAGACGACUCGCCCGA
modifications: 2'-F pyrimidines
  Kd: 0.13 nM

B26: 8-154 (ssRNA)
RNA: B25 RNA with G20A, A22G, U23A, A26C, U29G, C37U, G41U
modifications: 2'-F pyrimidines
  Kd: 0.12 nM

B27: 8-123 (ssRNA)
RNA: B25 RNA with A22G, A26G, U29G, C37U, C40U, G41U
modifications: 2'-F pyrimidines
  Kd: 0.21 nM

B28: 8-17 (ssRNA)
RNA: GGGAGGACGAUGCGGGCGGCUCGAUGUCGUCUUAUCCCUUUGCCCCAGACGACUCGCCCGA
modifications: 2'-F pyrimidines
  Kd: 0.095 nM

B29: 8-158 (ssRNA)
RNA: B28 RNA with G16C, U35C
modifications: 2'-F pyrimidines
  Kd: 0.31 nM

B30: 11-104 (ssRNA)
RNA: GGGAGGACGAUGCGGGUUUGAGUGAUGUCGUCUUGUCCCGCCUGCCAGACGACUCGCCCGA
modifications: 2'-F pyrimidines
  Kd: 0.091 nM

B31: 11-163 (ssRNA)
RNA: GGGAGGACGAUGCGGGCUUGAGUCUUUGAUCGUCUUAUCCCUCGUCAGACGACUCGCCCGA
modifications: 2'-F pyrimidines
  Kd: 0.082 nM

B32: 11-208 (ssRNA)
RNA: GGGAGGACGAUGCGGGUUUGAGUGACGAUCGUCUUGUCCCAUGUGCAGACGACUCGCCCGA
modifications: 2'-F pyrimidines
  Kd: 0.06 nM

B33: 8-171 (ssRNA)
RNA: B23 RNA with A18G, A25U, C40U
modifications: 2'-F pyrimidines
  Kd: 0.12 nM

B34: 11-212 (ssRNA)
RNA: GGGAGGACGAUGCGGGUUUGAGUUAAACAUCGGUUUUCUCCUGCAGACGACUCGCCCGA
modifications: 2'-F pyrimidines
  Kd: 0.075 nM

B35: 11-6 (ssRNA)
RNA: GGGAGGACGAUGCGGGACGCGUUGAUUCAUCGUCUUAUCCUGCUGCAGACGACUCGCCCGA
modifications: 2'-F pyrimidines
  Kd: 0.24 nM

B36: 11-126 (ssRNA)
RNA: GGGAGGACGAUGCGGGUUUGGGUCUUGAUCUCGUCUUGUCCCGUGCAGACGACUCGCCCGA
modifications: 2'-F pyrimidines
  Kd: 0.17 nM

B37: 11-165 (ssRNA)
RNA: GGGAGGACGAUGCGGGUUGAUAGGAGUCAUCAUCGUCUUGUCCGCCAGACGACUCGCCCGA
modifications: 2'-F pyrimidines
  Kd: 0.073 nM

B38: 11-215 (ssRNA)
RNA: GGGAGGACGAUGCGGGUAGUGAGUUUUCAUUGUCUUGUCCCCGUGCAGACGACUCGCCCGA
modifications: 2'-F pyrimidines
  Kd: 0.091 nM

B39: 11-151 (ssRNA)
RNA: GGGAGGACGAUGCGGUGAGUCAUAGUGUUGAUCGUCGUAUCCCGUCAGACGACUCGCCCGA
modifications: 2'-F pyrimidines
  Kd: 0.17 nM

B40: 11-7 (ssRNA)
RNA: GGGAGGACGAUGCGGGUGGAGUCAAAUCGUCUUGUCCCUUGUCCUCAGACGACUCGCCCGA
modifications: 2'-F pyrimidines
  Kd: 0.11 nM

B41: 11-166 (ssRNA)
RNA: GGGAGGACGAUGCGGGUUUGAGUUCUGACACGUCUUGUCCCAUGCCAGACGACUCGCCCGA
modifications: 2'-F pyrimidines
  Kd: 0.079 nM

B42: 11-17 (ssRNA)
RNA: GGGAGGACGAUGCGGGUUAGAGCGUGACAGUCGUCUUAUCCCGGGUCACAGACGACUCGCCCGA
modifications: 2'-F pyrimidines
  Kd: 0.13 nM

B43: 8-113 (ssRNA)
RNA: GGGAGGACGAUGCGGUGAAUUCCUCUGGCUGAAAAUGACUUGUGCCAGACGACUCGCCCGA
modifications: 2'-F pyrimidines
  Kd: 0.083 nM

B44: 8-114 (ssRNA)
RNA: B23 RNA with A18U, C40U
modifications: 2'-F pyrimidines
  Kd: 0.071 nM

B45: 11-221 (ssRNA)
RNA: GGGAGGACGAUGCGGGCAGAGCGAAAAUCGUCUUGUCCCCGACGCCAGACGACUCGCCCGA
modifications: 2'-F pyrimidines
  Kd: 0.062 nM

B46: 11-123 (ssRNA)
RNA: GGGAGGACGAUGCGGGUGACUCAAAAUGGUGAUCCUCGUUUCGCCAGACGACUCGCCCGA
modifications: 2'-F pyrimidines
  Kd: 0.09 nM

B47: 8-174 (ssRNA)
RNA: GGGAGGACGAUGCGGUCGAGCUUCUGAGUUAAACUGGGGCCUCCUCAGACGACUCGCCCGA
modifications: 2'-F pyrimidines
  Kd: 0.23 nM
